Tests used:
Test in all cases: SPR
[1] = target: Influenza A H1N1 (A/Puerto Rico/8/34/Mount Sinai) Matrix protein 1 / M1 Protein (His Tag) (Influenza A virus A/Puerto Rico/8/34/Mount Sinai (H1N1)) (UniProt P03485)
[2] = target: Influenza NA protein (recombinant, bought) (Influenza A virus (strain not stated)) (UniProt P03470)
[3] = target: Influenza A virus A/WSN/1933 (H1N1) particles, purified (Influenza A virus A/WSN/1933 (H1N1)) (UniProt P03470)

Sequence of UniProt P03485 (P03485 whole entry): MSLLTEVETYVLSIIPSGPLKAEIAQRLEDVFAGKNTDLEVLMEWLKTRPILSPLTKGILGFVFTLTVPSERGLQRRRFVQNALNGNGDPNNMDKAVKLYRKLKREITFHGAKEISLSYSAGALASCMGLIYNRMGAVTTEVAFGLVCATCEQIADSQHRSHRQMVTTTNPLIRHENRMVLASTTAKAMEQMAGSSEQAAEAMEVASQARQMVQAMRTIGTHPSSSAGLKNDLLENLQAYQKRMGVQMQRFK

## TfR1 protein (recombinant, bought from Sino Biological) (from UniProt P02786 1-760) (receptor)
[1]
  Kd: 75.9 nM
[2]
  Kd: 42.4 nM
[3]
  Kd: 34.6 nM

Reference: publication PMC12533913
